# B1: MhsT (Halalkalibacterium halodurans C-125) (protein)
# chain: SLKQQTGREQWASRLGFILAAMGSAVGLGNIWRFSYVTGENGGAAFLLVYLGFIALIGIPIVLAEFTIGRRAQSDAVGSFEKLAPGKPWKVAGLMGVAAGFLILSFYGVIAGWILFYLFNYITGQLWSAPAEGFGGFFEGFIANPTLPLFWQALFMIATIWIVAIGVKKGIERSNKILMPLLGVLLIALAIYSLTLGGAKEGLAFLFSPDWSALKDPGVYLAAISQAFFTLSLGMGALITYGSYVSKDSRLPGAAVSVAGLDTAFAIIAGIMIFPAVFALGLSPSGGPGLVFVVLPDIFDSIRLGPIVGIAFFILLGAAALSSAVSLLEVPVAYFMRKFDWSRKQAAITLGVIITLLGIPSSLSFGVLGEVTIIPGLNIFDSVDFIASSVFLPLGGMIIALFIGWGWKTSDALAESDLTDSVWGKLWILSLRFIAPIAILIVFLSAFQIFFN
# Substrate: N[C@@H](Cc1c[nH]c2ccccc12)C(=O)O
# Assay: radiolabelled uptake in intact E. coli MQ614
# Type: cell-based, Halalkalibacterium halodurans
# Conditions: 10-second uptake, 10 mM Tris/Mes pH 8.5, 150 mM NaCl, labelled compound
protein,measurement,value
B1,Km,1.07 ± 0.19 µM

# From paper doi:10.1101/2020.04.03.022970v1
